Data taken from patent US20090221680, “Aptamers that bind thrombin with high affinity” (published 2009).

How the values were obtained:
[1] = biological target: T1, thrombin (alpha-thrombin) (Homo sapiens, UniProt P00734;P00734 P00734:315-363,P00734:364-622); assay: filter
thrombin = thrombin (Sus scrofa, UniProt Q19AZ8;Q19AZ8 Q19AZ8:316-364,Q19AZ8:365-622); assay: filter; species cross-reactivity
[2] = biological target: thrombin (endogenous, in vivo, ACT of whole blood) (Macaca fascicularis, UniProt A0A2K5UZ51;A0A2K5UZ51 A0A2K5UZ51:325-360,A0A2K5UZ51:361-619); assay: inhibition; maximum ACT in monkey, IV bolus 0.46 umol/kg
[3] = biological target: T2, thrombin (endogenous, clotting assay in plasma or whole blood) (Homo sapiens, UniProt P00734;P00734 P00734:328-363,P00734:364-622); assay: inhibition; PT at 10 uM, parent 300 s
prothrombin = prothrombin (Homo sapiens, UniProt P00734 P00734:44-622); assay: filter; 50 nM prothrombin; details: tags: Athens Research
Procedure, shortened: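 Trace 5′-³²P-labeled RNA clones incubated ±50 nM prothrombin with 0.1 mg/ml BSA in 1×DPBS (with Ca²⁺/Mg²⁺), 30 min. Bound RNA captured on nitrocellulose, free RNA on nylon; filters quantified by phosphorimaging. Single-point screen.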

[4] = biological target: T2, thrombin (endogenous, clotting assay in …); assay: inhibition; PT at 10 uM
[5] = biological target: T1, thrombin (alpha-thrombin); assay: filter; DPBS Ca2+ Mg2+, 0.1 mg/ml BSA
[6] = biological target: T2, thrombin (endogenous, clotting assay in …); assay: inhibition; ACT at 10 uM
[7] = biological target: T2, thrombin (endogenous, clotting assay in …); assay: inhibition; PT at 10 uM, instrument maximum
[8] = biological target: T1, thrombin (alpha-thrombin); assay: filter; NB, non binder
[9] = biological target: T1, thrombin (alpha-thrombin); assay: filter; DPBS Ca Mg, BSA, RT
[10] = biological target: T1, thrombin (alpha-thrombin); assay: filter; DPBS Ca2+ Mg2+, 0.1 mg/ml BSA, room temp

CGCCTAGGTTGGGTAGGGTGGTGGCG (ssDNA) [ARC2172] was tested, and the Kd [1] was 0.14 nM, the binding result (thrombin) was “binds” and the activity [2] was 527 s.

GGTTGGGTAGGGTGG (ssDNA) [Minimer 3] showed an activity [3] of 25.8 s.

TCCCCGATGTGTCAGCCTAGGGTGGTTAGGGTGGTGGCTGAGGATCGATC (ssDNA) [AMX(398)_C5] gave a binding signal (prothrombin) of 19.2 % bound, an activity [4] of 64.7 s and a Kd [5] of 2.2 nM.

In the case of CGCCTAGGTTGGGTAGGGTGGTGGCG (ssDNA, 5'-hexylamine) [ARC2324], the activity [6] is reported as 424 s.

In the case of CGCTAGGTTGGGTAGGGTGGTGCG (ssDNA, 2'-OMe at positions 1, 2, 23, 24) [ARC2949], the activity [2] is reported as 403 s.

TCCCGATTGGAAAGCCTAGGATGGGTAGGGTGGTGGCTGAGGATCGATC (ssDNA) [AMX(399)_F12] gave a binding signal (prothrombin) of 48.2 % bound, an activity [4] of 74.9 s and a Kd [5] of 0.66 nM.

GGCCGATCAGGCTAGGTTGGGTAGGGTGGTGGCTGAGGATCGGCC (ssDNA) [Minimer 7] showed an activity [3] of 83.3 s.

For TCCTGATCGGATGTGGTGGGTTATTGGTTTGGGTGGCTGAGGATCGATC (ssDNA) [AMX(453)_F6], the activity [7] was 300 s.

Work on ACTGCCTAGGTTGGGTAGGGTGGTGGCAGT (ssDNA, 5'-PEG 10 kDa via hexylamine) [ARC2323] yielded an activity [6] of 514 s.

ACTGCCTAGGTTGGGTAGGGUGGTGGCAGT (XNA, 2'-OMe U21, rest DNA) [ARC2633]: no binding [8].

TCCCATCGAGCTCAGTCTAGGATGGGTAGGGTGGTGGCTGAGGATCGATC (ssDNA) [AMX(453)_B6] showed an activity [7] of 300 s.

CGCCTAGGTTGGGTAGGGTGGTGGCG (ssDNA, 5'-PEG 10 kDa via hexylamine) [ARC2329] showed an activity [6] of 664 s.

ACTGCCTAGGTTGGGTAGGGTGGTGGCAGT (ssDNA, PS linkage between nt 1 and 2) [ARC2644] was tested, and the Kd [9] was 0.183 nM.

TCCCATCTTCTGTAGCCTAGGTTGGGTAGGGTGGTGGCTGAGGATCGATC (ssDNA) [AMX(398)_H5] was tested, and the activity [4] was 71 s.

For TCCCTGCAATTCGATCAGCAGGGGTGGTGTGGGTGGCTGAGGATCGATC (ssDNA) [AMX(395)_A1], the Kd [10] was 6.4 nM.

Work on CCGGCTAGGTTGGGTAGGGTGGTGGCTGG (ssDNA) [Minimer 11] yielded an activity [3] of 27.9 s.

ACTGCCTAGGTUGGGTAGGGTGGTGGCAGT (XNA, 2'-OMe U12, rest DNA) [ARC2624]: no binding [8].

TCCCATGAACTCAGGGTAATTTTTTGGTGTGGGTGGCTGAGGATCGATC (ssDNA) [AMX(398)_D9] was tested, and the binding signal (prothrombin) was 41.8 % bound, the activity [4] was 80.8 s and the Kd [5] was 5.64 nM.

TCCCGAGCGATACTGCCTAGGCTGGGTAGGGTGGTGGCTGAGGATCGATC (ssDNA) [AMX(398)_C10] showed a binding signal (prothrombin) of 40.9 % bound, an activity [4] of 58.8 s and a Kd [5] of 3.27 nM.

For TCCCGAGGGACGACGCCTAGGTTGGGTAGGGTGGTGGCTGAGGATCGATC (ssDNA) [AMX(399)_C11], the binding signal (prothrombin) was 41.6 % bound, the activity [4] was 52.6 s and the Kd [5] was 1.74 nM.

With TCCCGAGCGATATTGCCTAGGTTGGGTAGGGTGGTGGCTGAGGATCGATC (ssDNA) [AMX(454)_F2] the activity [7] was 300 s.

Work on ACTGCCTAGGTTGGGTAGGGTGGTGGCAGT (ssDNA) [ARC2169] yielded a Kd [1] of 0.135 nM and an activity [2] of 542 s.
